Measured values published in publication PMC6128974.

T1: DOF5.8-ZF (Arabidopsis thaliana, UniProt Q9FGD6 24-83)
T1 sequence: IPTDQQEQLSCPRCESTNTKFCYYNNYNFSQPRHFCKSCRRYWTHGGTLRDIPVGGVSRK

T2: DOF3.4-ZF (Arabidopsis thaliana, UniProt Q39088 22-81)
T2 sequence: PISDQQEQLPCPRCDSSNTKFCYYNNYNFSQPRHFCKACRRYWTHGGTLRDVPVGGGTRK


Experiments:
DOF5.8-ZF [1] = molecular target: T1, DOF5.8-ZF; assay: EMSA
DOF3.4-ZF [2] = molecular target: T2, DOF3.4-ZF; assay: EMSA
DOF5.8-ZF [3] = molecular target: T1, DOF5.8-ZF; assay: MST
DOF3.4-ZF [4] = molecular target: T2, DOF3.4-ZF; assay: MST

Binder	binding result (DOF5.8-ZF [1])	binding result (DOF3.4-ZF [2])	Kd (DOF5.8-ZF [3])	Kd (DOF3.4-ZF [4])
Control for single-motif probe (dsDNA) DNA 1: AATCCAGCGATGTAGAGGAG DNA 2: CTCCTCTACATCGCTGGATT	no binding	no binding		
Control for double-motif probe (dsDNA) DNA 1: AAATAATCATGCGATATTGCGAAATATATAAC DNA 2: GTTATATATTTCGCAATATCGCATGATTATTT	no binding	no binding		
Double-motif probe, fluorescein (dsDNA) DNA 1: AAATAATCATAAAGTATTAAAGTAATATATAC DNA 2: GTATATATTACTTTAATACTTTATGATTATTT			2500 ± 1000 nM	2300 ± 1000 nM
